B1: PR003555 (bispecific antibody, human IgG1, kappa, L234A L235A)
light: DIQMTQSPSSLSASIGDRVTITCRASQSINSYLNWYQQKPGKAPKLLIYTASSLLSGVPSRFSASGSWTDFSLTISSLQPEDFATYYCQQSFSTPYTFGQGTNLEIKRTVAAPSVFIFPPSDEQLKSGTASVVCLLNNFYPREAKVQWKVDNALQSGNSQESVTEQDSKDSTYSLSSTLTLSKADYEKHKVYACEVTHQGLSSPVTKSFNRGEC
heavy: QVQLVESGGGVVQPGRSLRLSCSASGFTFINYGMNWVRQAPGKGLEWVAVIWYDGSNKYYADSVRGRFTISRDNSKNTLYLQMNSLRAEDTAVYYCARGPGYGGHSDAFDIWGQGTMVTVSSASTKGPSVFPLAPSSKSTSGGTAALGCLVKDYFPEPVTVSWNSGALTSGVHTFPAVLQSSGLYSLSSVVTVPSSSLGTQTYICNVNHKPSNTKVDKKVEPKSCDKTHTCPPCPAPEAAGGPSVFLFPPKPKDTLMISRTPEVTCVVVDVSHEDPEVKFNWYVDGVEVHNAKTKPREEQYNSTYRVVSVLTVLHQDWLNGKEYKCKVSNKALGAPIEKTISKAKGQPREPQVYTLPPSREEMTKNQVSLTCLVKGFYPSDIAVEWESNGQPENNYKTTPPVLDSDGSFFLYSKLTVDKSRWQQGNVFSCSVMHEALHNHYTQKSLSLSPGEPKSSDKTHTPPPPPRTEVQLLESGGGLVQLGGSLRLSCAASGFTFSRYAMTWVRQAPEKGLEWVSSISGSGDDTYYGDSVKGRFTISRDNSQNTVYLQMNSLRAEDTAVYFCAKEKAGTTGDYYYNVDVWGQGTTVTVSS
notes: Structure 1, IgG-VH; PSMA Fab from PR001331, 4-1BB VH from PR001758; linker H1_15-RT; human IgG1 (AAG); also called PSMA×4-1BB bispecific antibody molecule
B2: PR003556 (bispecific antibody, human IgG1, kappa, L234A L235A)
light: B1 light
heavy: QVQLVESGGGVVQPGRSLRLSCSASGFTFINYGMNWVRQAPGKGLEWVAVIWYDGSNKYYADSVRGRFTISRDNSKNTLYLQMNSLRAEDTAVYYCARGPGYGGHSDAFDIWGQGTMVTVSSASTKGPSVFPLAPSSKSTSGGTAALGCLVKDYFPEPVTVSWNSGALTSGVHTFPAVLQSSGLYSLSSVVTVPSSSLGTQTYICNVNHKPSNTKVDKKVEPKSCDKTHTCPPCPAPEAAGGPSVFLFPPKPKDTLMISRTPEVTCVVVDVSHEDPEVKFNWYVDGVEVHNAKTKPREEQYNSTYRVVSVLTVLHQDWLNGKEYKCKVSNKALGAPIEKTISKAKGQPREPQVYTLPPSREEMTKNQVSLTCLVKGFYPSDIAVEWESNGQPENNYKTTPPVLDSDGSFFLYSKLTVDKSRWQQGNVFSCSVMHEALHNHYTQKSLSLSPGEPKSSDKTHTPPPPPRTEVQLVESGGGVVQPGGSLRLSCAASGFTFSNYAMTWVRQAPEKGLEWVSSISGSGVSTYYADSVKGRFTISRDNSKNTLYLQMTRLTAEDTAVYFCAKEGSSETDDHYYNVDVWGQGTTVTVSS
notes: Structure 1, IgG-VH; PSMA Fab from PR001331, 4-1BB VH from PR001760; linker H1_15-RT; human IgG1 (AAG); also called PSMA×4-1BB bispecific antibody molecule
B3: PR001331, anti-PSMA monoclonal antibody 2E8A1B1 hIgG1 (antibody, V domains shown)
VH: QVQLVESGGGVVQPGRSLRLSCSASGFTFINYGMNWVRQAPGKGLEWVAVIWYDGSNKYYADSVRGRFTISRDNSKNTLYLQMNSLRAEDTAVYYCARGPGYGGHSDAFDIWGQGTMVTVSS
VL: DIQMTQSPSSLSASIGDRVTITCRASQSINSYLNWYQQKPGKAPKLLIYTASSLLSGVPSRFSASGSWTDFSLTISSLQPEDFATYYCQQSFSTPYTFGQGTNLEIKR
notes: Parent monoclonal antibody of the PSMA end; hIgG1
B4: PR001760, anti-4-1BB heavy-chain antibody 1016P0011G10 (antibody, human IgG1, V domains shown)
VH: EVQLVESGGGVVQPGGSLRLSCAASGFTFSNYAMTWVRQAPEKGLEWVSSISGSGVSTYYADSVKGRFTISRDNSKNTLYLQMTRLTAEDTAVYFCAKEGSSETDDHYYNVDVWGQGTTVTVSS
notes: Fully human heavy-chain antibody (HCAb), heavy chain dimer without light chains; also called anti-4-1BB HCAb antibody
B5: PR003562 (bispecific antibody, human IgG1, kappa, L234A L235A)
light: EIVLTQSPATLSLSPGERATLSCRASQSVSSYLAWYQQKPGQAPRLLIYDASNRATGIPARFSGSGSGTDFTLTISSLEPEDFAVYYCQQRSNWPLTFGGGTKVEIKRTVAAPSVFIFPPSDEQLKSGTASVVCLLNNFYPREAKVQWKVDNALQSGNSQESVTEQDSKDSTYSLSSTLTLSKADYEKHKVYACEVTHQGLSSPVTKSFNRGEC
heavy: EVQLLESGGGLVQPGGSLRLSCAASGFTFSSFVMSWVRQAPGKGLEWVSTISGSGRSTYYADSVKGRFTISRDNSKNTLHLQMNSLRAEDTAVYYCAKDAAAAGTKFDYWGQGTLVTVSSASTKGPSVFPLAPSSKSTSGGTAALGCLVKDYFPEPVTVSWNSGALTSGVHTFPAVLQSSGLYSLSSVVTVPSSSLGTQTYICNVNHKPSNTKVDKKVEPKSCDKTHTCPPCPAPEAAGGPSVFLFPPKPKDTLMISRTPEVTCVVVDVSHEDPEVKFNWYVDGVEVHNAKTKPREEQYNSTYRVVSVLTVLHQDWLNGKEYKCKVSNKALGAPIEKTISKAKGQPREPQVYTLPPSREEMTKNQVSLTCLVKGFYPSDIAVEWESNGQPENNYKTTPPVLDSDGSFFLYSKLTVDKSRWQQGNVFSCSVMHEALHNHYTQKSLSLSPGEPKSSDKTHTPPPPPRTEVQLLESGGGLVQLGGSLRLSCAASGFTFSRYAMTWVRQAPEKGLEWVSSISGSGDDTYYGDSVKGRFTISRDNSQNTVYLQMNSLRAEDTAVYFCAKEKAGTTGDYYYNVDVWGQGTTVTVSS
notes: Structure 1, IgG-VH; CLDN18.2 Fab from PR002726, 4-1BB VH from PR001758; linker H1_15-RT; human IgG1 (AAG); also called CLDN18.2×4-1BB bispecific antibody molecule
B6: PR003563 (bispecific antibody, human IgG1, kappa, L234A L235A)
light: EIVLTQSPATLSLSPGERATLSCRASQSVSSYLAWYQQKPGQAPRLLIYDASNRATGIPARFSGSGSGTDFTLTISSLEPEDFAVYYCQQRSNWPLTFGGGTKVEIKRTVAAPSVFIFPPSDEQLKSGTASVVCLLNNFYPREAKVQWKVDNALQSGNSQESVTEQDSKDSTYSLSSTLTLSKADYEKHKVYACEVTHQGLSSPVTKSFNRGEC
heavy: EVQLLESGGGLVQPGGSLRLSCAASGFTFSSFVMSWVRQAPGKGLEWVSTISGSGRSTYYADSVKGRFTISRDNSKNTLHLQMNSLRAEDTAVYYCAKDAAAAGTKFDYWGQGTLVTVSSASTKGPSVFPLAPSSKSTSGGTAALGCLVKDYFPEPVTVSWNSGALTSGVHTFPAVLQSSGLYSLSSVVTVPSSSLGTQTYICNVNHKPSNTKVDKKVEPKSCDKTHTCPPCPAPEAAGGPSVFLFPPKPKDTLMISRTPEVTCVVVDVSHEDPEVKFNWYVDGVEVHNAKTKPREEQYNSTYRVVSVLTVLHQDWLNGKEYKCKVSNKALGAPIEKTISKAKGQPREPQVYTLPPSREEMTKNQVSLTCLVKGFYPSDIAVEWESNGQPENNYKTTPPVLDSDGSFFLYSKLTVDKSRWQQGNVFSCSVMHEALHNHYTQKSLSLSPGEPKSSDKTHTPPPPPRTEVQLVESGGGVVQPGGSLRLSCAASGFTFSNYAMTWVRQAPEKGLEWVSSISGSGVSTYYADSVKGRFTISRDNSKNTLYLQMTRLTAEDTAVYFCAKEGSSETDDHYYNVDVWGQGTTVTVSS
notes: Structure 1, IgG-VH; CLDN18.2 Fab from PR002726, 4-1BB VH from PR001760; linker H1_15-RT; human IgG1 (AAG); also called CLDN18.2×4-1BB bispecific antibody molecule
B7: PR003564 (bispecific antibody, human IgG1, kappa, L234A L235A)
light: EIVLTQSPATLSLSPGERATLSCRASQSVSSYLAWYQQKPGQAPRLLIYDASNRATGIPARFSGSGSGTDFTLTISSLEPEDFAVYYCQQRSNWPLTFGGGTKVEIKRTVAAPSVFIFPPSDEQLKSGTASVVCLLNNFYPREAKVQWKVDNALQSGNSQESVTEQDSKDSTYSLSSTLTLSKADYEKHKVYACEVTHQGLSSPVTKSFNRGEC
heavy: EVQLLESGGGLVQPGGSLRLSCAASGFTFSSFVMSWVRQAPGKGLEWVSTISGSGRSTYYADSVKGRFTISRDNSKNTLHLQMNSLRAEDTAVYYCAKDAAAAGTKFDYWGQGTLVTVSSASTKGPSVFPLAPSSKSTSGGTAALGCLVKDYFPEPVTVSWNSGALTSGVHTFPAVLQSSGLYSLSSVVTVPSSSLGTQTYICNVNHKPSNTKVDKKVEPKSCDKTHTCPPCPAPEAAGGPSVFLFPPKPKDTLMISRTPEVTCVVVDVSHEDPEVKFNWYVDGVEVHNAKTKPREEQYNSTYRVVSVLTVLHQDWLNGKEYKCKVSNKALGAPIEKTISKAKGQPREPQVYTLPPSREEMTKNQVSLTCLVKGFYPSDIAVEWESNGQPENNYKTTPPVLDSDGSFFLYSKLTVDKSRWQQGNVFSCSVMHEALHNHYTQKSLSLSPGEPKSSDKTHTPPPPPRTEVQLLESGGGLVQPGGSLRLSCAASGFIFSNFAMTWVRQPPEKGLKWVSSINGSGFNTYYTDSVKGRFTISRDNSRNTLYLQMNRLTAEDTAVYFCAKEGSSETDDHYYNVDVWGQGTTVTVSS
notes: Structure 1, IgG-VH; CLDN18.2 Fab from PR002726, 4-1BB VH from PR001836; linker H1_15-RT; human IgG1 (AAG); also called CLDN18.2×4-1BB bispecific antibody molecule

Target: T1, human PSMA (human, UniProt Q04609 1-750)
T1 construct: whole, on cells; On LNCaP cells highly expressing human PSMA (Nanjing Cobioer, CBP60364); also called FOLH1; glutamate carboxypeptidase 2
Experiment: flow cytometry, LNCaP cells highly expressing human PSMA

T1 sequence (Q04609 whole entry): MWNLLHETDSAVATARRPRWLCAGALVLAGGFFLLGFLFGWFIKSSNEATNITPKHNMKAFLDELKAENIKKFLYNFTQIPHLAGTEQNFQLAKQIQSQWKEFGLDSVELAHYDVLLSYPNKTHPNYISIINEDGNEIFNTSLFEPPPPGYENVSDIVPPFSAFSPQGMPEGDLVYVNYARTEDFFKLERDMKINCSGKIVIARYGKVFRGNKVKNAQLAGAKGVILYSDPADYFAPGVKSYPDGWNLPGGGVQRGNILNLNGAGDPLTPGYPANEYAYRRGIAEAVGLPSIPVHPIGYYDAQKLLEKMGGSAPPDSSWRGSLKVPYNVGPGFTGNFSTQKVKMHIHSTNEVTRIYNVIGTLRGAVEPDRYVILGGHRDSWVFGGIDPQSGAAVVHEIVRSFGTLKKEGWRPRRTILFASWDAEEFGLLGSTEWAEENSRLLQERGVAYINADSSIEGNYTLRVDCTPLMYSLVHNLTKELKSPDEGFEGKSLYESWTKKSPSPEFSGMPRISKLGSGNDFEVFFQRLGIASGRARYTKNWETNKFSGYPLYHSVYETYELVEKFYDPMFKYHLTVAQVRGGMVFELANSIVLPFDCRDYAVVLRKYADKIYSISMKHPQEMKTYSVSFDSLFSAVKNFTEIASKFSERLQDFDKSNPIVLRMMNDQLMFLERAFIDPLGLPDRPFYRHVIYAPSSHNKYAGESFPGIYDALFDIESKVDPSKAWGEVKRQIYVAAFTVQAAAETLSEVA

| Binder | binding result |
| --- | --- |
| B1 | binds |
| B2 | binds |
| B3 | binds |

Target: T2, human 4-1BB (human, UniProt Q07011 24-255)
T2 construct: whole, on cells; Expressed on CHO-K1/hu 4-1BB cells (GenScript, M00538); also called CD137; TNFRSF9
Experiment: flow cytometry, CHO-K1/hu 4-1BB cells
Method: The binding ability of the binding protein to a CHO-K1 cell line CHO-K1/hu 4-1BB (GenScript, M00538) highly expressing human 4-1BB and a CHO-K1 cell line CHO-K1/cyno 4-1BB (GenScript, M00569) highly expressing cynomolgus monkey 4-1BB were determined by flow cytometry FACS. Specifically, the cells were digested and resuspended in a complete medium, and the cell density was adjusted to 2×10⁶ cells/mL. […] The cells were incubated at 4° C. for 1 h away from light. Then, the cells in each well were rinsed twice with 100 μL of pre-cooled FACS buffer (PBS buffer containing 0.5% BSA) and centrifuged at 500 g at 4° C. for 5 min, and then the supernatant was discarded. […] Then, the cells in each well were then rinsed twice with 200 μL of pre-cooled FACS buffer and centrifuged at 500 g at 4° C. for 5 min, and then the supernatant was discarded. Finally, a pre-cooled FACS buffer was added at 200 μL/well to resuspend the cells. Fluorescence signal values were read using a BD FACS CANTOII flow cytometer or an ACEA NovoCyte flow cytometer, and the data were processed and analyzed using FlowJo v10 (FlowJo, LLC) software.

T2 sequence (Q07011 24-255): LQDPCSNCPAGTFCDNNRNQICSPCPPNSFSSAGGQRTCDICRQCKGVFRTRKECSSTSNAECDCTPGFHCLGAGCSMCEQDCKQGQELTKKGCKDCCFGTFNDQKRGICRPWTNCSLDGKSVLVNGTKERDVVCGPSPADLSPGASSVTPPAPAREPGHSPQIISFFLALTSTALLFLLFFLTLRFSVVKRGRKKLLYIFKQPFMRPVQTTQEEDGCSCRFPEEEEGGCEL

| Binder | binding result |
| --- | --- |
| B1 | binds |
| B2 | binds |
| B4 | binds |
| B5 | binds |
| B6 | binds |
| B7 | binds |

— US20230303698A1 (HARBOUR BIOMED SHANGHAI, published 2023)
